Tests used:
Test in all cases: ELISA on immobilized antigen, streptavidin-HRP detection; value is the average over oligomer, monomer and fibril
amyloid beta 1-42 fibril = amyloid beta 1-42 fibril (UniProt P05067)
[1] = target: amyloid beta 1-42 monomer (UniProt P05067)
[2] = target: amyloid beta 1-42 oligomer (UniProt P05067)

Measured: EC50

Sequence of amyloid beta 1-42 monomer (P05067 672-713 limits assumed): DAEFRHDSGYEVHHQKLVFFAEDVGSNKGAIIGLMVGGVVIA
Sequence of amyloid beta 1-42 fibril (P05067 672-713 limits assumed): as above
Sequence of amyloid beta 1-42 oligomer (P05067 672-713 limits assumed): as above

6E10 antibody (biotinylated)
0.031 µg/mL: all assays above

Source: patent US20190292247A1
